Results published in article PMC3377065 (EMBO Molecular Medicine, 2011).
Where “and” joins values, the source holds several entries; their conditions need not be identical. Identical values can stand only once.

B1: human CMG2 C279A, V5-tagged (receptor)
chain: not shown
B2: human CMG2 C255A, V5-tagged (receptor)
chain: not shown
B3: human CMG2 C230A, V5-tagged (receptor)
chain: not shown
B4: human CMG2 C230A–C315A double mutant, V5-tagged (receptor)
chain: not shown
B5: human CMG2 C218A, V5-tagged (receptor)
chain: not shown
B6: human CMG2 C39A, V5-tagged (receptor)
chain: not shown
B7: human CMG2 C315A, V5-tagged (receptor)
chain: not shown

Target: the molecule itself
Assay: non-reducing SDS-PAGE and Western blot

Protein | stoichiometry N
B1 | 3 and 4
B2 | 3 and 4
B3 | 3 and 4
B4 | 2
B5 | 2
B6 | 2
B7 | 3 and 4
